We go through seven molecules from US20180273970A1, “PLASMID, TRANSFORMED PLANT CELL AND TRANSGENIC PLANT COMPRISING THE SAME, AND METHODS FOR PREPARING A TRANSGENIC PLANT AND FOR INCREASING YIELD OF A PLANT UNDER ABIOTIC STRESSES” (Academia Sinica, priority 2014, published 2018).

The test system of assay [1] is αAmy3 SRC promoter. Briefly: Barley aleurone transient expression assay, SRC-35Smp:Luc reporter (luciferase). Type of assay: cell-based. As to conditions: barley aleurones, 5 μM ABA or 400 mM sorbitol, 24 h. On the procedure: (§1) FIG. 21. ABA and sorbitol suppress the function of SnRK1A in activation of αAmy3 SRC promoter. Rice embryos and barley aleurones were transfected with reporter SRC-35Smp:Luc with or without effectors, incubated with or without ABA for 24 h, and assayed for luciferase activity. The luciferase activity in embryos or aleurones bombarded with the SRC-35S mp-Luc construct only and in +S medium was set to 1×, and other values were calculated relative to this value. Error bars indicate the SE for three replicate experiments. (A) Plasmid constructs. (B) Barley aleurones were transfected with effector Ubi:SnRK1A, Ubi:SKIN1 or Ubi:SKIN(Ri) alone and reporter SRC-35Smp:Luc, or co-transfected with effectors Ubi:SnRK1A and Ubi:SKIN or Ubi:SKIN(Ri) and reporter SRC-35Smp:Luc. (C) Rice embryos (upper panel) were transfected with or without Ubi:SnRK1A and incubated with or without 1 μM ABA or 50 mM sorbitol, and barley aleurones (lower panel) were transfected with or without Ubi:SnRK1A and incubated with 5 μM ABA or 400 mM sorbitol.
The barley aleurone/endosperm transient expression assays were performed as described (Hong et al., 2012). Each independent experiment consisted of three replicates, with six endosperms for each treatment, and was repeated three times with similar results. Luciferase and GUS activity assays were performed as described (Hong et al., 2012). […]

The subject of assay [2] is αAmy3 SRC promoter. Briefly: Rice embryo transient expression assay, SRC-35Smp:Luc reporter (luciferase). The format is cell-based. Particulars: 24 h; for Antagonism of SnRK1A function on αAmy3 SRC promoter: co-transfected with Ubi:SnRK1A, +S or −S. How it is done:
FIG. 3. The highly conserved GKSKSF domain (KSD) is essential for SKINs to antagonize the function of SnRK1A. Rice embryos were transfected with plasmids, incubated in medium with 100 mM glucose (+S) or without glucose (−S) for 24 h, and assayed for luciferase activity. The luciferase activity in rice embryos bombarded with the SRC-35S mp-Luc construct only and in +S medium was set to 1×, and other values were calculated relative to this value. Error bars indicate the SE for three replicate experiments. (A) Plasmid constructs. (B) Rice embryos were co-transfected with effector Ubi:SnRK1A, Ubi:SKIN1 or Ubi:SKIN(Ri) alone and reporter SRC-35Smp:Luc, or co-transfected with effectors Ubi:SnRK1A and Ubi:SKIN or Ubi:SKIN(Ri) and reporter SRC-35Smp:Luc. (C) Total cellular proteins were extracted from rice embryos transfected with Ubi:SnRK1A, Ubi:SKIN or Ubi:SnRK1A and Ubi:SKIN by particle bombardment and subjected to Western blot analysis using antibodies against SnRK1A and the HA tag fused to at the N-terminus of SKINs. (D) Rice embryos were co-transfected with effectors Ubi:SnRK1A and Ubi:SKIN1 (wild-type or truncated) and reporter SRC-35Smp:Luc. (E) Rice embryos were co-transfected with effectors Ubi:SnRK1A and Ubi:SKIN (wild-type, KSD deleted, or KSD replaced with 6 Ala) and reporter SRC-35Smp:Luc.
as §1
Rice embryos were prepared for particle bombardment as described (Chen et al., 2006). The rice embryos were bombarded with reporter, effectors and internal control at a ratio of 4:2:1 for single effector or 4:2:2:1 for two effectors. The internal control (Ubi::GUS) was used to normalize the reporter enzyme activity because different transformation efficiency might occur in each independent experiment. Bombarded rice embryos were divided into two halves, with half being incubated in MS liquid medium containing 100 mM Glc, and the other half grown in MS liquid containing 100 mM mannitol, for 24 h. Total proteins were extracted for embryos with a cell lysis buffer [0.1 M K-phosphate, pH 7.8, 1 mM EDTA, 10% glycerol, 1% triton X-100, and 7 mM β-mercaptoethanol]. GUS assay buffer [0.1 M Na-phosphate, 20 mM EDTA, 0.2% sarcosine, 0.2% Triton X-100, and 20 mM β-mercaptoethanol] was used for GUS activity assay. The activity assay of GUS and luciferase were described elsewhere (Lu et al., 1998). All bombardments were repeated at least three times.

Another assay deals with SKIN1. In words: Quantitative RT-PCR of SKIN1 mRNA in leaves of 2-week-old rice seedlings after stress or ABA. As to conditions: 6 h after salt stress (200 mM NaCl). The format is in vivo. How it is done: FIG. 9. The expression of SKIN is induced by various abiotic stresses and ABA, and SKINs promote the ABA sensitivity. (A) Total RNA was purified from leaves of 2-week-old rice seedlings that had been air dried, treated with 200 mM salt, incubated at 4° C., or treated with 1 μM ABA, or from embryos of seedlings grown underwater (hypoxia), for various lengths of time. RNAs were subjected to quantitative RT-PCR analysis using primers specific for SKIN1 and SKIN2. The highest mRNA level was set as 100%. The lowest mRNA level was assigned a value of 1× and mRNA levels of other samples were calculated relative to this value. Error bars indicate the SE for three replicate experiments. (B) Seeds of transgenic lines SKIN1-Ox(O3), SKIN1-Ri(R3), SKIN2-Ox(02) and SKIN2-Ri(R1) were germinated and grown in water containing various concentrations of ABA at 28° C. under a 14-h light/10-h dark cycle for 6 days. Lengths of shoots were measured. Error bars represent SE (n=8) at significance levels: * p<0.1, ** p<0.05. […]
Total RNA was extracted from leaves of rice seedlings with the Trizol reagent (Invitrogen) and treated with RNase-free DNase I (Promega, Madison, Wis.). […] The quantitative variation between different samples was evaluated by the delta-delta CT method, and the amplification of 18S ribosomal RNA was used as an internal control to normalize all data.

The target in assay [3] is T1, GAD-SnRK1A (full-length SnRK1A 1-505 fused to the Gal4 activation domain) (rice, UniProt Q852Q2 1-505).
T1 construct: range 1-505
T1 sequence (looked up): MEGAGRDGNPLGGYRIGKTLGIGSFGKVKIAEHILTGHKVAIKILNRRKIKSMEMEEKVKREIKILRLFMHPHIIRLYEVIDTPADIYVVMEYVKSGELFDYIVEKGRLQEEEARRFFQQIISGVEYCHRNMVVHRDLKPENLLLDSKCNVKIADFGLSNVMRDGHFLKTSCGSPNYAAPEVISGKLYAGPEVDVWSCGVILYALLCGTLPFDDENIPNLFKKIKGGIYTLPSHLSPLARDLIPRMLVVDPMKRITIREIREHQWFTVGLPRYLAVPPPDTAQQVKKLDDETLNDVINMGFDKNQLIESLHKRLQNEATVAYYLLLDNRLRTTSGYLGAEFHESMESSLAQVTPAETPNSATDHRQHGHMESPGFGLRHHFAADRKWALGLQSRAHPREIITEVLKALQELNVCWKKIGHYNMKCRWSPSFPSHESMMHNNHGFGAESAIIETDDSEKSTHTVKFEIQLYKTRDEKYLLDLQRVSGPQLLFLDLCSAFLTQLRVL
Briefly: yeast two-hybrid, GBD-SKIN1 truncation with GAD-SnRK1A. From the text:
FIG. 14. The N-terminal amino acids 1-83 of SKIN1 interact with the kinase and autoinhibitory domains of SnRK1A in yeast. (A) Plasmid constructs ADH1:GAD-SnRK1A and ADH1:GBD-SKIN1 (wild type or deletion at N- or C-terminus) were used as effectors, and Mel1:LacZ, Mel1:Mel1 and Gal1:HIS3 were used as reporters. (B) The N-terminus of SKIN1 interacts with SnRK1A in the yeast two-hybrid assays. (C) The kinase domain (KD) and auto-inhibitory domain (AID) of SnRK1A interact with SKIN1 and SKIN2. Yeast strain AH109 containing GAD-SnRK1A or GAD alone (-) was mated with yeast strain Y187 containing various GBD-SKIN1 constructs or GBD alone (-). The interaction between p53 and large T-antigen (T-Ag) was used as a positive control.

Consider `OC[C@@H](O)[C@@H](O)[C@H](O)[C@@H](O)CO` [sorbitol], for which the “Effect on αAmy3 SRC promoter (luciferase activity), alone and SnRK1A-activated” value was “suppressed” in the assay with αAmy3 SRC promoter [1] and “suppressed” in the assay with αAmy3 SRC promoter [2] (rice embryos, 1 μM ABA or 50 mM sorbitol).

Consider `[Cl-].[Na+]` [salt, NaCl], for which the “Induction of SKIN1 mRNA accumulation” value with SKIN1 is listed as no more than 2.3 fold.

B1: GBD-SKIN1 160-259 (other)
chain: MKLLSSIEQACDICRLKKLKCSKEKPKCAKCLKNNWECRYSPKTKRSPLTRAHLTEVESRLERLEQLFLLIFPREDLDMILKMDSLQDIKALLTGLFVQDNVNKDAVTDRLASVETDMPLTLRQHRISATSSSEESSNKGQRQLTVSRRASCSSLATATYLPPLLAPDHAVAEGDEGEEEDDDSDDDERQHRGKNGGRRESAAPPLPLPPPRLTLHTQMGGMVRRNGTFRSPRSLSLSDLQNSGGSC
Turning to B1, in assay [3], the binding result is “no binding”. Also, the “Antagonism of SnRK1A function on αAmy3 SRC promoter” value in the assay with αAmy3 SRC promoter [2] was “did not antagonize”.

B2: SKIN1(1-83): truncated SKIN1 containing amino acids 1-83 (protein)
chain: MKLLSSIEQACDICRLKKLKCSKEKPKCAKCLKNNWECRYSPKTKRSPLTRAHLTEVESRLERLEQLFLLIFPREDLDMILKMDSLQDIKALLTGLFVQDNVNKDAVTDRLASVETDMPLTLRQHRISATSSSEESSNKGQRQLTVSMSTAVADVPPAAAYGFPGSAKRGKPEEVVVLMGKRRNEGFFIEEEEEEEEVLTESSSIGAPSPASSSIGENSGEEEGGDDEEE
Consider B2, for which the “Antagonism of SnRK1A function on αAmy3 SRC promoter” value in the assay on αAmy3 SRC promoter [2] was “did not antagonize”.

B3: SnRK1A: rice Snf1-related protein kinase 1A, overexpressed from Ubi:SnRK1A effector (protein)
chain: T1 sequence (looked up)
modifications: left off: large carriers
Take B3: the “αAmy3 SRC promoter activity on overexpression of the effector” value in the assay on αAmy3 SRC promoter [2] (100 mM glucose (+S) or without glucose (−S)) is listed as “enhanced”.

B4: GBD-SKIN1 84-259 (other)
chain: MKLLSSIEQACDICRLKKLKCSKEKPKCAKCLKNNWECRYSPKTKRSPLTRAHLTEVESRLERLEQLFLLIFPREDLDMILKMDSLQDIKALLTGLFVQDNVNKDAVTDRLASVETDMPLTLRQHRISATSSSEESSNKGQRQLTVSVESKLKAEDEQVGLGCLDALEESLPIKRGLSNFYAGKSKSFTSLAEATASPAAAANELAKPENPFNKRRRILATWSRRASCSSLATATYLPPLLAPDHAVAEGDEGEEEDDDSDDDERQHRGKNGGRRESAAPPLPLPPPRLTLHTQMGGMVRRNGTFRSPRSLSLSDLQNSGGSC
Regarding B4, the binding result in assay [3] is recorded as “no binding”.

B5: GBD-SKIN1 84-159 (other)
chain: MKLLSSIEQACDICRLKKLKCSKEKPKCAKCLKNNWECRYSPKTKRSPLTRAHLTEVESRLERLEQLFLLIFPREDLDMILKMDSLQDIKALLTGLFVQDNVNKDAVTDRLASVETDMPLTLRQHRISATSSSEESSNKGQRQLTVSVESKLKAEDEQVGLGCLDALEESLPIKRGLSNFYAGKSKSFTSLAEATASPAAAANELAKPENPFNKRRRILATWS
In the case of B5, the binding result in assay [3] is listed as “no binding”.
